Measurements as given in patent US20220056112A1 (YUROGEN BIOSYSTEMS, published 2022).

The binders below were run against T1, nucleocapsid protein of SARS-CoV-2 (SARS-CoV-2, UniProt P0DTC9 1-419).

Binder | Kd [nM] | koff [s⁻¹] | kon [M⁻¹ s⁻¹]
rabbit monoclonal antibody 6H7 against the SARS-CoV-2 nucleocapsid protein (antibody, V domains shown) VH: QQQLEESGGGLVQPGGSLTLSCKASGFNVNSDCYMCWVRQAPGKGLEWIGCIDTVSGSTYYATWAKGRFTISKTSSTTVTLQMTSLTAADTATYFCARDFLYNVNNAGDIMDLWGPGTLVTVSL VL: AQVLTQTPSSVSAAVGGTVTINCQSSYNVYNNNYLAWYQQKPGQPPKLLIYTTSTLASGVPSRFSGSGSGTQFTLTISDLECDDAAIYYCQGYYRGPVNDFGGGTEVVVEG | 0.674 | 0.000238 | 354000
rabbit monoclonal antibody 3A7 against the SARS-CoV-2 nucleocapsid protein (antibody, V domains shown) VH: QEQLEESGGGLVQPEGSLTLTCTASGFSLSDSAYMCWVRQAPGKGLEWIACIDAGVSGSTYYASWVNGRFTISKTSSTTVTLQMTSLTVADTATYFCARDFLYTPNNAGDIMDLWGPGTLVTVSL VL: AQVLTQTPSSVSAAVGGTVTINCQSSHTVYSNNYLSWYQQKPGQPPKLLIYSASSLASGVPSRFKGSGSGTQFTLTISDLECDDAAIYYCHGYWRGPVNDFGGGTEVVVEG | 1.22 | 0.000272 | 224000
rabbit monoclonal antibody 5B12 against the SARS-CoV-2 nucleocapsid protein (antibody, V domains shown) VH: QSLEESGGDLVQPEGTLTLTCTASGFSFFYDYYMCWVRQAPGKGLEWIGCIYGASGDTYYASWAKGRFTISKTSSTTVTLRMTSLTAADTATYFCARDVDTGSGIDFELWGPGTLVTVSS VL: AYDMTQTPASVEVAVGGTVTIKCQASQSIGSYLSWYQQKPGQPPKLLIYSTSTLASGVPSRFKGSGSGTQFTLTISGVECADAATYYCQQGDTNHNIDNIFGGGTEVVVEG | 1.89 | 8.29e-05 | 44000
rabbit monoclonal antibody 1G7 against the SARS-CoV-2 nucleocapsid protein (antibody, V domains shown) VH: QQQVVESGGGLVKPGASLTLTCEASGFSFSSGYDMCWVRQAPGKGLEWIACIYPGSSGNTYYASWAKGRFTISKTSSTTVTLQMTSLTAADTATYFCARTYASSSGDYIPYFFNLWGPGTLVTVSS VL: DIVMTQTPASVEAAVGGTVTIKCQASENIYSGLAWYQQKPGQPPKLLIYDASDLASGVPSRFKGSGSGTEYTLTISDLECADAATYYCQNYYYSSRGFNTFGGGTEVVVKG | 8.14 | 9.87e-05 | 12100
rabbit monoclonal antibody 1F8 against the SARS-CoV-2 nucleocapsid protein (antibody, V domains shown) VH: QEHLEESGGGLVKPGASLTLTCTASGFSLSNNYWICWVRQAPGKGLEWIACIYTGRDYTYYTSWAKGRFTISKTSSTTVTLQLNSLTAADTATYFCARNNTDYGDYWDLWGPGTLVTVSS VL: AQVLTQTASPVSVAVGDTVTINCQASQSVYKNNYLAWYQLKPGQPPKLLIYWGTKLPSGVPSRFKGSGSGTHFTLTISDVQCDDAATYYCLGSYDCTIAECNVFGGGTEVVVEG | 2.29 | 0.000206 | 90200
rabbit monoclonal antibody 5B4 against the SARS-CoV-2 nucleocapsid protein (antibody, V domains shown) VH: QSLEESGGGLVKPGGTLTLTCTVSGLSLSTNAPNWVRQAPGKGLEWIGTIFIDDEDTYYASWAKGRFTISKTSSTTITLKMTSLTAADTATYFCARNSDLWDPGTLVVVSS VL: AQVLTQTPSPVSAAVGGTVTINCQASQSVYNNNYLSWFQQKPGQPPKLLIYKASTLASGVSSRFKGSGSGTQFTLTISDVQCDDAATYFCLGSYDCRSANCIVFGGGTEVVVKG | 0.717 | 0.000261 | 364000
rabbit monoclonal antibody 11B12 against the SARS-CoV-2 nucleocapsid protein (antibody, V domains shown) VH: QQQLEESGGGLVKPGGTLTLTCTVSGLSLSSNTLNWVRQAPGKGLEWIGTIFIDDEDTYYASWAKGRFTISKTSSTTITLKMTSLTAADTATYFCARSSDLWDPGTLVVVSS VL: AQVLTQTPSSVSAAVGGTVTINCQASQSVYKNNYLSWFQQKPGQPPKLLIYQASKLASGVSSRFKGSGSGTQFTLTISDVQCDDAATYFCLGSYDCRSANCIVFGGGTEVVVKG | 0.0565 | 2.63e-05 | 465000

Biological target: T1, nucleocapsid protein of SARS-CoV-2
Remark: another data set of the same source

Binder | EC50 (read off the curve) [ng/mL]
rabbit monoclonal antibody 1G7 against the SARS-CoV-2 nucleocapsid protein (antibody, V domains shown) VH: QQQVVESGGGLVKPGASLTLTCEASGFSFSSGYDMCWVRQAPGKGLEWIACIYPGSSGNTYYASWAKGRFTISKTSSTTVTLQMTSLTAADTATYFCARTYASSSGDYIPYFFNLWGPGTLVTVSS VL: DIVMTQTPASVEAAVGGTVTIKCQASENIYSGLAWYQQKPGQPPKLLIYDASDLASGVPSRFKGSGSGTEYTLTISDLECADAATYYCQNYYYSSRGFNTFGGGTEVVVKG | ~10
